The target in the data set is von Willebrand factor full length (Homo sapiens) (UniProt P04275). As to the kind of experiment: filter. As to conditions: 3'-idT.

The results in this text go back to patent US20060264369.

By Kd is commonly meant the free concentration of one partner at which half of the binding sites on the other are occupied at equilibrium, for simple one-to-one binding. The sequence “GCGUGCAGUGCCGGCCGTGCGGTGCCUCCGUCACGC [ARC1527]” registered a Kd (2'-OMe/deoxy composite, single PS, internal PEG, 14.1% bound at 100 nM vWF) of 3.4 nM.
Consider “GCGUGCAGUGCCGGCCGTGCGGTGCCUCCGUCACGC [ARC1528]”, for which, under “2'-OMe/deoxy composite, single PS, internal PEG, 10.2% bound at 100 nM vWF”, the dissociation constant (Kd) was determined as 4.2 nM.
With “CGUGCAGUGCCGGCCGTGCGGTGCCUCCGUCACG [ARC1532]”, the Kd (2'-OMe/deoxy composite, single PS, internal PEG, 19.3% bound at 100 nM vWF) is 2.6 nM.
For the setting “2'-OMe/deoxy composite, single PS, internal PEG, 20.0% bound at 100 nM vWF”, “CGUGCAGUGCCGGCCGTGCGGTGCCUCCGUCACG [ARC1531]” had an equilibrium dissociation constant (Kd) of 1.5 nM.
As to “GGCGTGCAGTGCCGGCCGTGCGGTGCCTCCGTCACGCC [ARC1029]”, the Kd (internal PEG spacer after GGCGTGCAGTGCC, DPBS, 0.1 mg/mL BSA, RT) stood at 1.4 nM.
In turn, “CGGCCGTGCGGTGCCUCCGUCACGUGCAGUGCCG [ARC1533]” came in with a Kd (2'-OMe/deoxy composite, single PS, internal PEG, 31.7% bound at 100 nM vWF) of 4 nM.
With “GCGTGCAGTGCCTAGGCCGTGCGGTGCCTCCGTCACGCC [ARC1028]”, the dissociation constant Kd (internal PEG spacer after GCGTGCAGTGCCT, DPBS, 0.1 mg/mL BSA, RT) was 1.1 nM.
